Test results reported in patent US20160002337A1 (ALBERT EINSTEIN COLLEGE OF MEDICINE, published 2016).

Tests used:
B7x-Ig [1] = target: T1, B7x-Ig (human, UniProt Q7Z7D3 25-259; P01857 99-330 = IgG part, limits assumed); test: FACS on 3T3 or CT26 transfectants, PE anti-human IgG Fc
T1 construct: extracellular domain;domain: Fc; Made in Drosophila S2 cells; Used as a control fusion protein; also called B7x-Ig fusion protein
Procedure: (§1) Antibodies and flow cytometry. Cells were incubated with Fc blocking reagents and then stained with combinations of the following anti-human antibodies: CD152-PE, CD28-PE, B7-1-PE, B7-2-PE, PD-1-PE, PD-L1-PE, PD-L2-PE, ICOS-PE, ICOSL-PE, B7H4-PE, CD14-FITC, CD19-FITC, CD8a-Percp-Cy5.5, CD4-APC, CD83-APC, streptavidin and isotype controls (eBioscience). Biotinylated anti-hB7-H3 was purchased from R&D. For receptor binding, cells were incubated with HHLA2-Ig, B7x-Ig, or control Ig for 45 min on ice and then stained with PE-anti-human IgG Fc (Jackson Immunoresearch). Samples were acquired on a FACSCalibur, LSRII or LSRII yellow (BD Biosciences), and analyzed with FlowJo (Treestar).

[2] = target: T2, Fc portion of human IgG1 (Ig control) (human, UniProt P01857-1 99-330 = IgG part, limits assumed); test: FACS on 3T3 transfectants, PE anti-human IgG Fc
T2 construct: domain: Fc; Control protein made in Drosophila S2 cells; also called control Ig; human IgG1 Fc tag
Procedure: as §1

B7x-Ig [3] = target: T1, B7x-Ig; test: FACS on 3T3 transfectants, PE anti-human IgG Fc
Procedure: as §1

T1 sequence (Q7Z7D3 other isoform, or with tags, fused parts or gaps limits assumed): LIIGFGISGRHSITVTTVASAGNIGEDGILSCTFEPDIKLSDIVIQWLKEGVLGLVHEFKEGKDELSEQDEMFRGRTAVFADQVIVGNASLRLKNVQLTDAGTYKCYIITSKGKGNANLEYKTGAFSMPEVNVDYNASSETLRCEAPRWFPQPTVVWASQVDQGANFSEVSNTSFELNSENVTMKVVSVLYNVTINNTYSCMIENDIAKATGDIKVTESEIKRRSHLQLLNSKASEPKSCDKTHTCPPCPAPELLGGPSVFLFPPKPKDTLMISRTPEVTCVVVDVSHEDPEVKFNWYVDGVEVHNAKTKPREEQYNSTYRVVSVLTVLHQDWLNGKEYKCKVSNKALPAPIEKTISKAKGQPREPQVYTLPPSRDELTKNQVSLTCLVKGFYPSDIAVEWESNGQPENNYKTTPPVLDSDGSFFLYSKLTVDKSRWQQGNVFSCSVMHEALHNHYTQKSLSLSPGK

B1: human PD-L2 on transfected cells (ligand, UniProt Q9BQ51 20-273, looked up)
chain: LFTVTVPKELYIIEHGSNVTLECNFDTGSHVNLGAITASLQKVENDTSPHRERATLLEEQLPLGKASFHIPQVQVRDEGQYQCIIIYGVAWDYKYLTLKVKASYRKINTHILKVPETDEVELTCQATGYPLAEVSWPNVSVPANTSHSRTPEGLYQVTSVLRLKPPPGRNFSCVFWNTHVRELTLASIDLQSQMEPRTHPTWLLHIFIPFCIIAFIFIATVIALRKQLCQKLYSSKDTTKRPVTTTKREVNSAI
notes: whole, on cells; also called B7-DC
- binding result (B7x-Ig [1]): no binding

B2: human ICOS on transfected cells (receptor, UniProt Q9Y6W8 21-199, looked up)
chain: EINGSANYEMFIFHNGGVQILCKYPDIVQQFKMQLLKGGQILCDLTKTKGSGNTVSIKSLKFCHSQLSNNSVSFFLYNLDHSHANYYFCNLSIFDPPPFKVTLTGGYLHIYESQLCCQLKFWLPIGCAAFVVVCILGCILICWLTKKKYSSSVHDPNGEYMFMRAVNTAKKSRLTDVTL
notes: whole, on cells
- binding result [2]: no binding
- binding result (B7x-Ig [3]): no binding

B3: human B7-2 on transfected cells (ligand, UniProt P42081 24-329, looked up)
chain: APLKIQAYFNETADLPCQFANSQNQSLSELVVFWQDQENLVLNEVYLGKEKFDSVHSKYMGRTSFDSDSWTLRLHNLQIKDKGLYQCIIHHKKPTGMIRIHQMNSELSVLANFSQPEIVPISNITENVYINLTCSSIHGYPEPKKMSVLLRTKNSTIEYDGVMQKSQDNVTELYDVSISLSVSFPDVTSNMTIFCILETDKTRLLSSPFSIELEDPQPPPDHIPWITAVLPTVIICVMVFCLILWKWKKKKRPRNSYKCGTNTMEREESEQTKKREKIHIPERSDEAQRVFKSSKTSSCDKSDTCF
notes: whole, on cells; also called CD86
- binding result (B7x-Ig [1]): no binding

B4: human B7-1 on transfected cells (ligand, UniProt P33681 35-288, looked up)
chain: VIHVTKEVKEVATLSCGHNVSVEELAQTRIYWQKEKKMVLTMMSGDMNIWPEYKNRTIFDITNNLSIVILALRPSDEGTYECVVLKYEKDAFKREHLAEVTLSVKADFPTPSISDFEIPTSNIRRIICSTSGGFPEPHLSWLENGEELNAINTTVSQDPETELYAVSSKLDFNMTTNHSFMCLIKYGHLRVNQTFNWNTTKQEHFPDNLLPSWAITLISVNGIFVICCLTYCFAPRCRERRRNERLRRESVRPV
notes: whole, on cells; also called CD80
- binding result (B7x-Ig [1]): no binding

B5: human B7h on transfected cells (ligand, UniProt O75144 19-302, looked up)
chain: DTQEKEVRAMVGSDVELSCACPEGSRFDLNDVYVYWQTSESKTVVTYHIPQNSSLENVDSRYRNRALMSPAGMLRGDFSLRLFNVTPQDEQKFHCLVLSQSLGFQEVLSVEVTLHVAANFSVPVVSAPHSPSQDELTFTCTSINGYPRPNVYWINKTDNSLLDQALQNDTVFLNMRGLYDVVSVLRIARTPSVNIGCCIENVLLQQNLTVGSQTGNDIGERDKITENPVSTGEKNAATWSILAVLCLLVVVAVAIGWVCRDRCLQHSYAGAWAVSPETELTGHV
notes: whole, on cells; also called ICOS-L
- binding result (B7x-Ig [1]): no binding
